Measurements taken from PMC12132507 (bioRxiv, 2025).

T1: Eps15IDR (C-terminal intrinsically disordered region of human Eps15, residues 481 to 897) (human, UniProt P42566 481-896)
T1 sequence: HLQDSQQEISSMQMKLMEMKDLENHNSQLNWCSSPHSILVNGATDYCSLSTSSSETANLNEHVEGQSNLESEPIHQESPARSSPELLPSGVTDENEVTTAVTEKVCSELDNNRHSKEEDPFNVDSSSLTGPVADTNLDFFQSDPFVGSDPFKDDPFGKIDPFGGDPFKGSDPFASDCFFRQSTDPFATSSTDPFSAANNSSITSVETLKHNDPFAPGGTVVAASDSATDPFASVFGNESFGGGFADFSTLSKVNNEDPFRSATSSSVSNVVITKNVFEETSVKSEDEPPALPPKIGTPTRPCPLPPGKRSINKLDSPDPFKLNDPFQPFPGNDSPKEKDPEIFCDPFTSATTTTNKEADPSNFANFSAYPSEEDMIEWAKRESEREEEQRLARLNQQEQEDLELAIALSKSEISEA

B1: N-terminal domain of the clathrin heavy chain, TD40 (domain or fragment)
chain: MAQILPIRFQEHLQLQNLGINPANIGFSTLTMESDKFICIREKVGEQAQVVIIDMNDPSNPIRRPISADSAIMNPASKVIALKAGKTLQIFNIEMKSKMKAHTMTDDVTFWKWISLNTVALVTDNAVYHWSMEGESQPVKMFDRHSSLAGCQIINYRTDAKQKWLLLTGISAQQNRVVGAMQLYSVDRKVSQPIEGHAASFAQFKMEGNAEESTLFCFAVRGQAGGKLHIIEVGTPPTGNQPFPKKAVDVFFPPEAQNDFPVAMQISEKHDVVFLITKYGYIHLYDLETGTCIYMNRISGETIFVTAPHEATAGIIGVNRKGQVLSVCVEEENIIPYITNVLQNPDLALRMAVRNNLAGAEEL

Columns and labels:
[1] = target: T1, Eps15IDR (C-terminal intrinsically …); experiment: NMR titration
[2] = target: B1; experiment: NMR titration

Binder | binding result [1] | binding result [2]
B1 | binds | –
Eps15(648-780) (domain or fragment) KGSDPFASDCFFRQSTDPFATSSTDPFSAANNSSITSVETLKHNDPFAPGGTVVAASDSATDPFASVFGNESFGGGFADFSTLSKVNNEDPFRSATSSSVSNVVITKNVFEETSVKSEDEPPALPPKIGTPTR | – | binds
Eps15(569-671) (domain or fragment) SGVTDENEVTTAVTEKVCSELDNNRHSKEEDPFNVDSSSLTGPVADTNLDFFQSDPFVGSDPFKDDPFGKIDPFGGDPFKGSDPFASDCFFRQSTDPFATSST | – | binds
